Target: the molecule itself
Experiment: cryo-EM structure

B1: rat Kir6.2 (natural protein)
chain: MLSRKGIIPEEYVLTRLAEDPTEPRYRTRERRARFVSKKGNCNVAHKNIREQGRFLQDVFTTLVDLKWPHTLLIFTMSFLCSWLLFAMVWWLIAFAHGDLAPGEGTNVPCVTSIHSFSSAFLFSIEVQVTIGFGGRMVTEECPLAILILIVQNIVGLMINAIMLGCIFMKTAQAHRRAETLIFSKHAVITLRHGRLCFMLRVGDLRKSMIISATIHMQVVRKTTSPEGEVVPLHQVDIPMENGVGGNSIFLVAPLIIYHVIDSNSPLYDLAPSDLHHHQDLEIIVILEGVVETTGITTQARTSYLADEILWGQRFVPIVAEEDGRYSVDYSKFGNTVKVPTPLCTARQLDEDRSLLDALTLASSRGPLRKRSVAVAKAKPKFSISPDSLS
stoichiometry N: 4

From paper doi:10.1101/172908 (bioRxiv, 2017)
